Holding throughout (test): flow cytometry on cells
(In general: In flow cytometry, cells or beads pass a laser one at a time.)

Assay [1] has as its target EI2.4.6 (human) (UniProt P02751).
Assay [2] has as its target E6.2.10 (human) (UniProt P02751).
Assay [3] concerns the target EI1.4.1 (human) (UniProt P02751).

What is called Kd is a measure of binding affinity in units of concentration. On to “EGFR mutant 404SG (from UniProt P00533 25-1210) (receptor)”, for which the Kd in assay [1] stood at 2.9 nM; in assay [2], 0.96 nM; in assay [3] it was 0.85 nM.

Values taken from PMC3927142.
